Measurements taken from the supplement of paper PMC12764529.
± gives the half width of the 95% confidence interval.

Experiments:
[1] = folding stability dG unfold from trypsin proteolysis; higher = more stable
Summary of the method: (§1)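 Sequencing followed digestion of designed mini-proteins with trypsin and chymotrypsin, each at 11 concentrations in threefold dilutions together with a no-protease condition. The mini-proteins were under 80 residues, had no cysteine, sat in a PA-tagged cDNA display construct, and were kept only if AlphaFold2 dimer inter-PAE was above 15. From the counts, Bayesian fitting gave K50, and unfolding free energy was derived against a sequence-predicted unfolded-state K50 and a shared folded-state K50, per protease or combined.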

[2] = folding stability dG unfold from chymotrypsin proteolysis; higher = more stable
Summary of the method: as §1

[3] = folding stability dG unfold (combined trypsin and chymotrypsin); higher = more stable
Summary of the method: as §1

Row | Sequence | folding stability dG unfold [1] [kcal/mol] | folding stability dG unfold [2] [kcal/mol] | folding stability dG unfold [3] [kcal/mol]
1 | SAGGSAGGSSKYIKFIIPANSPEAIEKAKELAEFIKKKYPGIKKIEVKYNPEKGYLEVIAEVESAGGSAGGS [r12_248_TrMRF] | 4.08 ± 0.28 | 3.87 ± 0.048 | 3.96 ± 0.17
2 | SAGGSAGGSSLEEIAKKLGLKPGMRVRLSDGKVLEVPSLDDLKAALEAGLSLEELKKIEIEPVSAGGSAGGS [r12_430_TrROS_Hall] | 1.13 ± 0.023 | 1.68 ± 0.04 | 1.42 ± 0.12
3 | SAGGSAGGSSLKPGQELELTLTLRVEVEVEVYENGKPVERYRVEREVRLTLRLKLPAASLEDLSAGGSAGGS [r20_14_TrROS_Hall] | 4.06 ± 0.14 | 5.73 ± 0.21 | 5.55 ± 0.15
4 | SAGGSAGGSSLTLRLRLRLRVRVLDEETGELSEFEVEVELELRFEPAPPPPPPPLVLRDGKLVSAGGSAGGS [r12_140_TrROS_Hall] | 3.43 ± 0.15 | 4.53 ± 0.18 | 4.34 ± 0.34
5 | SAGGSAGGSSMPTMTKVGDTWLYYDPSTDIKRPATVTVDDGKITIDGDSGTTVYDGDLVIETSSAGGSAGGS [r12_683_JUSTAS] | 0.389 ± 0.057 | -0.313 ± 0.13 | 0.149 ± 0.1
6 | SAGGSAGGSSMTFEVVEIERPPGDEIRVLVKREDGREFAEITLPPGASPEEIERAVREAVEAESAGGSAGGS [r12_798_JUSTAS] | 0.707 ± 0.07 | 1.55 ± 0.057 | 1.26 ± 0.28
7 | SAGGSAGGSSMTFISTSTSPGNGYTYNIYSQPGKVVVTTTAPDGTVSVTTVEVSPDTSVTVTAASAGGSAGG [r6_380_JUSTAS] | 1.16 ± 0.045 | 1.36 ± 0.12 | 1.3 ± 0.085
8 | SAGGSAGGSSPEENLETQVETELLEEFKPGDKPRKLVKTTVTYPDGTTKEEIVTIDENGNILLSAGGSAGGS [r12_755_JUSTAS] | -0.206 ± 0.049 | -0.117 ± 0.065 | -0.0945 ± 0.1
9 | SAGGSAGGSSPITIPIPLSELSEETLKKIAEENPEGETPIKIIKPDGTPVTIVVKPGGEIIGASAGGSAGGS [r12_1054_JUSTAS] | 0.728 ± 0.046 | 1.09 ± 0.068 | 1.01 ± 0.075
10 | SAGGSAGGSSPPVTVIPLKIPVDPDTTPEEIKEELAAKVPPNSSVKVDTKPGSGTVNVTVTISSAGGSAGGS [r12_12_JUSTAS] | 1.12 ± 0.061 | -0.14 ± 0.11 | 0.753 ± 0.14
11 | SAGGSAGGSSPVRMVATIPLPDGTTITVEAEIVRLPDGTILIKTPSGEIIEVPPDVPVEFFPESAGGSAGGS [r20_227_JUSTAS] | 1.78 ± 0.057 | 2.45 ± 0.052 | 2.23 ± 0.054
12 | SAGGSAGGSSSYSVPDSSSVTLETTVTITFPSSSVGGSPASSGPVAFTVPVKVTVSVTNPGVASAGGSAGGS [r12_668_JUSTAS] | 1.18 ± 0.029 | 0.532 ± 0.18 | 1.02 ± 0.14
13 | SAGGSAGGSSTATFTLSRLPDGTYRLTLYDPSTNKVTTEEVPASRPDEYSAVTVSSDGTVTTASAGGSAGGS [r20_11_JUSTAS] | 0.771 ± 0.076 | 0.338 ± 0.11 | 0.662 ± 0.095
14 | SAGGSAGGSSTTPVTITVPESILDEIKKKAEELGIKVEVEIKESPENKKYATVTIEIPENVELSAGGSAGGS [r12_653_JUSTAS] | 0.935 ± 0.081 | -0.248 ± 0.25 | 0.509 ± 0.14
15 | SAGGSAGGSSVIEVTFSDGSKALFFPGSQKVVVYNPSTKKKIVIPPGVSPETALKAIAEGKPISAGGSAGGS [r12_832_TrMRF] | 0.91 ± 0.056 | 0.185 ± 0.073 | 0.671 ± 0.13
16 | SAGGSAGGSSVLEVDPETGITVAVQDPSTGRYYVRNPEGEIREFDSPEEIREAFGRPVNFKTAPSAGGSAGG [r6_753_JUSTAS] | 0.559 ± 0.018 | 0.787 ± 0.082 | 0.753 ± 0.057
17 | SAGGSAGGSSYTVSEDPNSSSTTITDPVTGRTVLRSPSSWTVVDPETGEEKSFPAGTVVTLPESAGGSAGGS [r12_584_JUSTAS] | -0.146 ± 0.13 | 1.06 ± 0.056 | 0.724 ± 0.042
18 | SAGGSAGGSTIDITLPDLDEEEIREYLKELFPDVEVTIEYDPSTNTYTLKVGGDEVVVTRLPPNSAGGSAGG [r6_609_JUSTAS] | 3.25 ± 0.086 | 3.43 ± 0.038 | 3.43 ± 0.057
19 | SAGGSAGGSTLKLEIVNEDGYKVEIEAELELVEKDGKLVLKLKVKIKVEPAKEVKEVKVELPESAGGSAGGS [r12_581_TrROS_Hall] | 1.95 ± 0.16 | 3.87 ± 0.2 | 3.45 ± 0.44
20 | SAGGSAGGSVEKLKKALEKLGIKVENVKIEVKTNKNGKKTVTIYVNGKKLSKEEIKKALKEIKSAGGSAGGS [r12_175_TrROS_Hall] | 2.99 ± 0.23 | 4.46 ± 0.33 | 4.24 ± 0.44
21 | SAGGSAGGSVESATTTITITASLTPEEVEEIIEELKKKGLNVKKVEIEREPETGSVTITVTVNPSAGGSAGG [r6_514_JUSTAS] | 3.2 ± 0.1 | 2.92 ± 0.075 | 3.14 ± 0.093

Row | Sequence | folding stability dG unfold [1] [kcal/mol] | folding stability dG unfold [2] [kcal/mol] | folding stability dG unfold [3] [kcal/mol]
22 | SAGGSAGGSVKITTEPDPNGYYRVTVTIRLNDKPIPVDMPFPPGKTPDQVKEKARDIAKELLKSAGGSAGGS [r12_69_TrROS] | 0.249 ± 0.089 | 0.546 ± 0.13 | 0.455 ± 0.091
23 | SAGGSAGGSVKPGQEIEVRVELTYDEETGELTIRREVVNKETGELIAEEEITISLEDLPPELLSAGGSAGGS [r12_145_TrROS_Hall] | 1.83 ± 0.083 | 1.51 ± 0.04 | 1.63 ± 0.076
24 | SAGGSAGGSVRIPGGQPNTKVTVTVRLPDGTPVEVEATVNPSGEITLDLPDVSPDLIESIELSSAGGSAGGS [r12_477_JUSTAS] | 1.14 ± 0.019 | 0.478 ± 0.027 | 0.82 ± 0.038
25 | SAGGSAGGSWGTISIRIEFNFMAFDPGLGQFSMFPMEVYISIPIEIPPPPPPPKPKYDNGKPKSAGGSAGGS [r12_140_TrROS] | 2.6 ± 0.28 | 4.52 ± 0.21 | 3.78 ± 0.29
26 | SAGGSAGGSWITPEWIEEIARYLARELGIDDVKIEVERRPDGYVTVEIRNPANGRKVEITVPWSAGGSAGGS [r12_1000_TrROS] | 3.38 ± 0.14 | 3.06 ± 0.1 | 3.16 ± 0.19
27 | SAGGSAGGSWIWVIKIENPEKGREYTFFIPGPLEDIKDHIREWNPDPDVKVEIQRIPVSPEAFSAGGSAGGS [r12_92_TrROS] | 1.68 ± 0.054 | 2.11 ± 0.096 | 1.89 ± 0.094
28 | SAGGSAGGSYLDPNKVYLVETEVVGDKVVFTLRDPETGETFVLEADASKEVLKPGDRVLALVASAGGSAGGS [r12_525_TrMRF] | 1.47 ± 0.047 | 1.97 ± 0.065 | 1.82 ± 0.12
29 | SAGGSAGGVIRMPFVIPDGYVIKDLTVHWSPGNGMFMIEIEIEPVKPPPPPEISPEELNKKNNKSAGGSAGG [r6_148_TrROS] | 2.15 ± 0.21 | 2.57 ± 0.04 | 2.41 ± 0.12
30 | SAGGSAGGVTINFPDGVTIMVDPGTGKIYIMNPNGYIFKFTIERKPNEWKLKIEPIKPIPPDDFSAGGSAGG [r6_324_TrROS] | 2.55 ± 0.085 | 3.7 ± 0.091 | 3.16 ± 0.19
31 | SAGGSAGGVVVVAKFPTREAVFVAPESLTPEQFAEALRRELGNPDAPLVDLEVRRVTPEELLAASAGGSAGG [r6_120_TrMRF] | -0.269 ± 0.16 | 1.05 ± 0.12 | 0.691 ± 0.15
32 | SAGGSAGGWFYIMFPIPPGYKVEAEWKFPNGPKVKSEIHPDGPIMITIPPGMANMPDFEIKIEPSAGGSAGG [r6_237_TrROS] | 2.35 ± 0.12 | 3.77 ± 0.084 | 3.2 ± 0.15
33 | SAGGSAGGWIPVEELAKEFGFSPDFIEQLMKNGYKIEYEYHEPGWVRLSVENPDNGKKREITFPSAGGSAGG [r6_969_TrROS] | 1.43 ± 0.022 | 2.183 ± 0.019 | 1.92 ± 0.053
34 | SAGGSAGGWIRVDKVEPNPNDDMATVSVEMEDPGDGKKKKFNMTMPSDNPELIDKLPPGDWIEFSAGGSAGG [r6_979_TrROS] | -0.621 ± 0.1 | 0.215 ± 0.11 | -0.1 ± 0.096
35 | SAGGSAGGWPLMVEYTPPGDGKTQTYPIPIKGPLSEIKDQIKENMPPGFREVEISPANIEKILKSAGGSAGG [r6_889_TrROS] | -0.76 ± 0.39 | -0.952 ± 0.5 | < -1
36 | SAGGSAGGWQPIAEHEFENPEDGKKIKIYYWPENGMMRIEFPNGRKHVIPPGDPFKSIEEMIKASAGGSAGG [r6_72_TrROS] | 1.15 ± 0.071 | 1.81 ± 0.059 | 1.54 ± 0.14
37 | SAGGSAGGYIMIPPGAEIDVNPENGKIKIKFRNPDNGEEEKITFDVPPGVKIHMWDNWIMIELPSAGGSAGG [r6_804_TrROS] | 3.3 ± 0.18 | 3.14 ± 0.12 | 3.29 ± 0.29
38 | SAGGSAGGYRIRFKNGIEFKLPMTEGELKKMADNFPGFEVTEVEPVPPPPPPPEDLPPEQREQMSAGGSAGG [r6_881_TrROS] | -0.134 ± 0.36 | 0.148 ± 0.23 | -0.0695 ± 0.32
39 | SAGGSAGIAKKNNLTLKVTVEKKGDKLLVTVEITYPDGTKKTITIELNIKLVPEVPPVHPDEPGFGSAGGSA [r15_843_TrMRF] | 2.58 ± 0.17 | 2.83 ± 0.1 | 2.81 ± 0.095
40 | SAGGSAGKIEIPLPELGEVREEPVPDTVRIEVRFPDGRVLEATVLKDDTIEIREKGTGKLVATLPASAGGSA [r15_656_TrMRF] | 1.44 ± 0.058 | 1.39 ± 0.043 | 1.44 ± 0.12
41 | SAGGSAGKKPVEFKVKIMIFNPENGDMYMIEMTITIDPDGQIKIKIKLPDPPRLPPGMVIFIMVYISAGGSA [r15_488_TrROS] | 4.08 ± 0.16 | 5.24 ± 0.085 | 5.01 ± 0.16
42 | SAGGSAGKPRPIDIWIPLPPGAEEVKIEQLDIFIPDGWRIRIEEIEIDPEDPGYIRVTVKIQPLDDSAGGSA [r15_852_TrROS] | 2.33 ± 0.1 | 2.78 ± 0.045 | 2.56 ± 0.16
